# From IntAct's records for PubMed 16488887
# B1: Prospero homeobox protein 1 (Homo sapiens), Q92786 (parent)
# chain: MPDHDSTALLSRQTKRRRVDIGVKRTVGTASAFFAKARATFFSAMNPQGSEQDVEYSVVQHADGEKSNVLRKLLKRANSYEDAMMPFPGATIISQLLKNNMNKNGGTEPSFQASGLSSTGSEVHQEDICSNSSRDSPPECLSPFGRPTMSQFDMDRLCDEHLRAKRARVENIIRGMSHSPSVALRGNENEREMAPQSVSPRESYRENKRKQKLPQQQQQSFQQLVSARKEQKREERRQLKQQLEDMQKQLRQLQEKFYQIYDSTDSENDEDGNLSEDSMRSEILDARAQDSVGRSDNEMCELDPGQFIDRARALIREQEMAENKPKREGNNKERDHGPNSLQPEGKHLAETLKQELNTAMSQVVDTVVKVFSAKPSRQVPQVFPPLQIPQARFAVNGENHNFHTANQRLQCFGDVIIPNPLDTFGNVQMASSTDQTEALPLVVRKNSSDQSASGPAAGGHHQPLHQSPLSATTGFTTSTFRHPFPLPLMAYPFQSPLGAPSGSFSGKDRASPESLDLTRDTTSLRTKMSSHHLSHHPCSPAHPPSTAEGLSLSLIKSECGDLQDMSEISPYSGSAMQEGLSPNHLKKAKLMFFYTRYPSSNMLKTYFSDVKFNRCITSQLIKWFSNFREFYYIQMEKYARQAINDGVTSTEELSITRDCELYRALNMHYNKANDFEVPERFLEVAQITLREFFNAIIAGKDVDPSWKKAIYKVICKLDSEVPEIFKSPNCLQELLHE
# partner: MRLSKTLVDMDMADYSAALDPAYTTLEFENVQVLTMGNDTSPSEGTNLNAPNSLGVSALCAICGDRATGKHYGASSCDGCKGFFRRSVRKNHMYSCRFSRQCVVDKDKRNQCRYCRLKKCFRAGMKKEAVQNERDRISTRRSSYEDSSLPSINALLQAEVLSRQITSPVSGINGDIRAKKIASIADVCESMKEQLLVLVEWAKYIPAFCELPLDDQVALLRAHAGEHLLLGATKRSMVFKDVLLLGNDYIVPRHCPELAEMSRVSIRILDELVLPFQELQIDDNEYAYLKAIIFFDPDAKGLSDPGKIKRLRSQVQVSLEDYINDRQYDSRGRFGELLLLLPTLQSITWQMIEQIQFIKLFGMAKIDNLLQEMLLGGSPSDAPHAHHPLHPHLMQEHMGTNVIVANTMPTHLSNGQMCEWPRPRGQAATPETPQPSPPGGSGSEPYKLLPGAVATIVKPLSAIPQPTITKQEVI
# Variants of: B1
# Details: with hnf4a_human HNF4A
row,effect of a mutation on the interaction,Variant
1,disrupting interaction,L70A;L73A
